Columns and labels:
[1] = biological target: T1, SR21 serine recombinase (Serine Recombinase 21) (Bacillus safensis strain CCMA-560); experiment: cell_activity; attB partner of attP (SEQ 7) in inversion reporter P41, HEK293, fold increase in fLUC over reporter alone; conditions: tags: untagged; expressed from CMV promoter plasmid P175 or Ad5-CMV-SR21
T1 chain: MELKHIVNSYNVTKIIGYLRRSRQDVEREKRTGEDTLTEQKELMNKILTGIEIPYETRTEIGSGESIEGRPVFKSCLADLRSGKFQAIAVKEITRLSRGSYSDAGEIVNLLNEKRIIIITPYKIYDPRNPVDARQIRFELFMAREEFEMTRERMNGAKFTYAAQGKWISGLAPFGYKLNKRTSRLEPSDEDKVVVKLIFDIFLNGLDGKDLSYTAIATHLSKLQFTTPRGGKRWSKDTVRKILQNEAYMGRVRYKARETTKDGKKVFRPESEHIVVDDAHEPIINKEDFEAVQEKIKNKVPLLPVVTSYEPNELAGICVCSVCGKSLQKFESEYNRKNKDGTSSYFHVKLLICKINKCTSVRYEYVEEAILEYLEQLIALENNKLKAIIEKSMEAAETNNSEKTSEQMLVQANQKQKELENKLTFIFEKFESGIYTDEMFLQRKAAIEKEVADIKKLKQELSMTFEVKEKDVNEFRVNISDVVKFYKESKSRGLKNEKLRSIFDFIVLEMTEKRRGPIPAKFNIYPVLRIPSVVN
Protocol: (§1) To measure SR21 recombinase activity in human cells, 75,000 HEK293 cells were plated into each well of 96-well tissue culture plates in 100 μl of high-glucose DMEM+10% Fetal Bovine Serum. The recombinase reporter plasmid (P041) ±the SR21 Recombinase expression plasmid (P175)+deoxynucleotides (to normalize DNA amounts) were complexed with Fugene-HD transfection reagent in OptiMEM medium for 15 minutes at room temperature as shown in Table 1 and transfected into triplicate wells of the plated cells. Plates were incubated at 37° C. for 48 hours.
(§2) Firefly Luciferase (fLUC) and Renilla luciferase (rLUC) was assayed sequentially in transfected wells using the Dual Glo assay kit from Promega. Medium was removed from the transfected wells of the tissue culture plate and 100 μl of a 1:1 mixture of DMEM medium (without phenol red) and the Dual Glo luciferase+ fLUC substrate was added. The plate was incubated at room temperature for 10 minutes. The lysate was transferred to an opaque white 96-well plate. fLUC activity was measured using the Envision multilabel reader. Next, 50 μl per well of the Stop-and-Glo buffer+Renilla substrate was added and the plate was incubated with gentle shaking for 10 minutes. The Renilla luciferase signal was read on the same Envision reader.

[2] = biological target: T1, SR21 serine recombinase (Serine …); experiment: cell_activity; attP x attB (SEQ 9) inversion reporter P41 in HEK293, fold increase in fLUC over reporter alone, 37 C 48 h; conditions: tags: untagged; expressed from CMV promoter plasmid P175 or Ad5-CMV-SR21
Protocol: as §1, §2

B1: SR21 attB (Fairview) (dsDNA)
DNA 1: CGTCAACATCTCCACTGACAAAGCGGTTTCTCCAACGAAT
DNA 2: ATTCGTTGGAGAAACCGCTTTGTCAGTGGAGATGTTGACG
In the case of B1, the activity [1] is reported as 1540 fold.

B2: SR21 attP (dsDNA)
DNA 1: AATTAAGTATCATGATAAACTGACAAAGCGGTATATCAAGATACTTAATA
DNA 2: TATTAAGTATCTTGATATACCGCTTTGTCAGTTTATCATGATACTTAATT
B2 was tested, and the activity [2] was 1540 fold.
